The series has as its target T1, PrimPol WT (UniProt Q96LW4 1-560).
T1 sequence: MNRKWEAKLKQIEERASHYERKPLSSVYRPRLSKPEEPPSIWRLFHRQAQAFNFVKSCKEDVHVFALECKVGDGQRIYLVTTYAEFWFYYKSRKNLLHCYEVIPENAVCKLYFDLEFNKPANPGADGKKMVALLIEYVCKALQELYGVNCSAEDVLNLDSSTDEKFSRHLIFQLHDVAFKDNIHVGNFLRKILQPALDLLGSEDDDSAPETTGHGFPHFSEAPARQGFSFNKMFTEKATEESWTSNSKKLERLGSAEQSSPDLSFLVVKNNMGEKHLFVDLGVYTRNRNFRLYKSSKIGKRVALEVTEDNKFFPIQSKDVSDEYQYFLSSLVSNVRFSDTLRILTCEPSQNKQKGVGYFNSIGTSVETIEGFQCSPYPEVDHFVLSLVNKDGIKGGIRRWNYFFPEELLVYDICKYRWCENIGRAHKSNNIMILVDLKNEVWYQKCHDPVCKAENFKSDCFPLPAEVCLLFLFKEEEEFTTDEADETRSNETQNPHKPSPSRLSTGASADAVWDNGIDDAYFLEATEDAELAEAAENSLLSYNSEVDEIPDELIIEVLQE
Description: thermal shift (DSF, stabilization by DNA); 10 uM Mn2+; EMSA: Mn2+ present, buffer not given in the material. DSF: 5 uM protein, 5 uM dsDNA, 50 mM Tris pH 7.5, 300 mM NaCl, 0.5 uM TCEP, 5% glycerol, 10 uM MgCl2 or MnCl2, 4-95 C ramp. As to conditions: protein: recombinant; tags: N-terminal His-TEV (tag cleaved); 20 bp, template 5' overhang 25 nt. In general terms: In EMSA bound probe runs differently from free probe, usually more slowly.

One molecule from publication PMC7283272, “Identifying the role of PrimPol in TDF-induced toxicity and implications of its loss of function mutation in an HIV+ patient” can be followed below.

B1: D20A/D45 primer/template (dsDNA)
DNA 1: GCCTCGCAGCCGTCCAACCA
DNA 2: GGACGGCATTGGATCGAGGTTGAGTTGGTTGGACGGCTGCGAGGC
With B1, the binding result is given as “binds”.
